Conditions: Escherichia coli (strain K12); pH 9; Thermal; DSC; Glycine 50mM; reversible: yes; whole UniProt chain shown

B1: Divalent-cation tolerance protein CutA wild type, P69488 (protein)
chain: MLDEKSSNTASVVVLCTAPDEATAQDLAAKVLAEKLAACATLIPGATSLYYWEGKLEQEYEVQMILKTTVSHQQALLECLKSHHPYQTPELLVLPVTHGDTDYLSWLNASLR
For B1, the Tm was 85.6 °C and the “unfolding enthalpy (calorimetric)” value was 208 kcal/mol.

Reference: FireProtDB (doi:10.1038/srep15545)
